Patent publication US20200216495A1 (ADRX, published 2020)
Like-named read-outs stand apart in the source and are kept apart here. Square brackets hold non-standard residues; d marks the D form. Primed or numbered codes have the meaning given here. Ends that are not written are not given here. dCha = N[C@H](CC1CCCCC1)C(=O)O; dNle = CCCC[C@@H](N)C(=O)O; PEG2′ = not defined here; Tam = not defined here

T1: His-Tau40 P301L Tau fibrils (human)
T1 chain: RLRIRW

T2: Tau40 P301L protein (human)
T2 sequence: WIKIRR

T3: Ac-VQIINK-NH2 (SEQ ID NO: 23)
T3 sequence (peptide, N-terminal acetyl (Ac); C-terminal amide (NH2)): RLKIRW


Legend:
Test in all cases: cell-based or functional assay
[1] = biological target: T1, His-Tau40 P301L Tau fibrils
Tau40 P301L protein = Tau40 P301L protein (human)
[2] = biological target: T2, Tau40 P301L protein (human); remark: listed apart in the source
[3] = biological target: T3, Ac-VQIINK-NH2 (SEQ ID NO: 23)
[4] = biological target: T1, His-Tau40 P301L Tau fibrils

Binder	IC50, Tau40 assay-Modified peptides (ThT) (Tau40 P301L protein) [µM]	VQIINK Inhibition IC50 [3] [µm]	further results
Tam-RRRRRRRRRRGGSGG[dE][dL][dK][dI][dV][dW] (reading uncertain; also: printed as Tam-RRRRRRRRRR-GGSGG-elkivw) [Tam-RRRRRRRRRR-GGSGG-elkivw]			EC50, HEK cell assay (TauRD(P301S) split luciferase, seeded with tau fibrils) [1]: 5.6 µM
Tam-YGRKKRRQRRRGGSGG[dW][dR][dL][dK][dV][dR][dW][dW] (reading uncertain) [Tam-[…]-GGSGG-wrlkvrww]	6.6		EC50, HEK cell assay (TauRD(P301S) split luciferase, seeded with tau fibrils) [1]: 1.8 µM
[dW][dR][dL][dK][dNle][dR][dW] [wrlkurw (PEPTIDE ID NO: 308)]			IC50, Tau40 assay (ThT) [2]: 2.12 µM
[dNle][dK][dI][dR][dI][dH][dY] [ukirihy]		1.12	
[dNle][dR][dL][dK][dV][dR][dW] [urlkvrw]		2.29	
Tam-RRRRRRRRRRGGSGG[dW][dK][dV][dQ][dV][dR][dL][dW] (reading uncertain; also: printed as Tam-RRRRRRRRRR-GGSGG-wkvqvrlw) [Tam-RRRRRRRRRR-GGSGG-wkvqvrlw]	5.53		EC50, HEK cell assay (TauRD(P301S) split luciferase, seeded with tau fibrils) [1]: 1.5 µM
Tam-RRRRRRRRRRGGSGG[dL][dE][dL][dK][dI][dK][dF][dW] (reading uncertain; also: printed as Tam-RRRRRRRRRR-GGSGG-lelkikfw) [Tam-RRRRRRRRRR-GGSGG-lelkikfw]	8.71		EC50, HEK cell assay (TauRD(P301S) split luciferase, seeded with tau fibrils) [1]: 12.1 µM
[dL][dK][dNle][dR][dNle][dH][dY] [lkuruhy]		0.87	
{TAMRA5-PEG2′}-[dW][dR][dA][dK][dA][dR][dA][dW]-OH [TAMRA5-PEG2-wrakaraw-OH]	9.17		
[dW][dR][dL][dK][dNle][dR][dW] [wrlkurw]		1.41	
[dL][dK][dI][dR][dNle][dH][dY] [lkiruhy]		2.07	
[dW][dR][dL][dK][dCha][dR][dW] (not fully specified; printed as wrlkbrw) [wrlkbrw]		0.35	
[dW][dR][dNle][dK][dV][dR][dW] [wrukvrw]		2.1	
Tam-RRRRRRRRRGGSGG[dR][dL][dK][dV][dR][dW] (reading uncertain; also: printed as Tam-RRRRRRRRR-GGSGG-rlkvrw) [Tam-RRRRRRRRR-GGSGG-rlkvrw]	20.1		
[dL][dK][dI][dR][dCha][dH][dY] [lkirbhy (PEPTIDE ID NO: 228)]			IC50, Tau40 assay (ThT) [2]: 0.9 µM
[dW][dR][dNle][dK][dNle][dR][dW] [wrukurw]		1.73	IC50, Tau40 assay (ThT) [2]: 7.21 µM
[dW][dR][dCha][dK][dCha][dR][dW] (not fully specified; printed as wrbkbrw) [wrbkbrw]		0.77	IC50, Tau40 assay (ThT) [2]: 9.33 µM

Binder	IC50, Tau40 assay-Modified peptides (ThT) (Tau40 P301L protein) [µM]	VQIINK Inhibition IC50 [3] [µm]	further results
[dW][dR][dCha][dK][dV][dR][dW] (not fully specified; printed as wrbkvrw) [wrbkvrw]		0.41	
RRRRRRRRRGGSGG[dW][dR][dI][dW][dI][dR][dY][dW] [RRRRRRRRR-GGSGG-wriwiryw]			EC50, HEK cell assay (TauRD(P301S) split luciferase, seeded with tau fibrils) [4]: 0.9 µM
Tam-RRRRRRRRRRGGSGG[dT][dL][dK][dI][dV][dW] (reading uncertain; also: printed as Tam-RRRRRRRRRR-GGSGG-tlkivw) [Tam-RRRRRRRRRR-GGSGG-tlkivw]	4.92		EC50, HEK cell assay (TauRD(P301S) split luciferase, seeded with tau fibrils) [1]: 3.6 µM
RRRRRRRRRGGSGG[dR][dL][dK][dV][dR][dW] [RRRRRRRRR-GGSGG-rlkvrw]	6.07		
RRRRRRRRRRGGSGG[dW][dR][dL][dK][dV][dR][dW][dW] [RRRRRRRRRR-GGSGG-wrlkvrww]			EC50, HEK cell assay (TauRD(P301S) split luciferase, seeded with tau fibrils) [4]: 2.3 µM; EC50, HEK cell assay (TauRD(P301S) split luciferase, seeded with tau fibrils) [1]: 1.7 µM
YGRKKRRQRRRGGSGG[dR][dL][dK][dV][dR][dW] [[…]-GGSGG-rlkvrw]	1.73		
Tam-RRRRRRRRRGGSGG[dW][dR][dL][dK][dV][dR][dW][dW] (reading uncertain; also: printed as Tam-RRRRRRRRR-GGSGG-wrlkvrww) [Tam-RRRRRRRRR-GGSGG-wrlkvrww]	20.5		EC50, HEK cell assay (TauRD(P301S) split luciferase, seeded with tau fibrils) [1]: 1.5 µM
[dCha][dR][dL][dK][dV][dR][dW] (not fully specified; printed as brlkvrw) [brlkvrw]		2.31	
RRRRRRRRRRGGSGG[dW][dK][dV][dQ][dV][dR][dL][dW] [RRRRRRRRRR-GGSGG-wkvqvrlw]			EC50, HEK cell assay (TauRD(P301S) split luciferase, seeded with tau fibrils) [4]: 2.1 µM
RRRRRRRRRRGGSGG[dT][dL][dK][dI][dV][dW] [RRRRRRRRRR-GGSGG-tlkivw]			EC50, HEK cell assay (TauRD(P301S) split luciferase, seeded with tau fibrils) [4]: 2.9 µM
[dL][dK][dNle][dR][dI][dH][dY] [lkurihy]		1.5	
Tam-YGRKKRRQRRRGGSGG[dR][dL][dK][dV][dR][dW] (reading uncertain) [Tam-[…]-GGSGG-rlkvrw]	6.6		
[dW][dR][dL][dK][dCha][dR][dW] [wrlkbrw (PEPTIDE ID NO: 307)]			IC50, Tau40 assay (ThT) [2]: 2.11 µM
Tam-RRRRRRRRRRGGSGG[dW][dR][dI][dW][dI][dR][dY][dW] (reading uncertain; also: printed as Tam-RRRRRRRRRR-GGSGG-wriwiryw) [Tam-RRRRRRRRRR-GGSGG-wriwiryw]	4.94		
RRRRRRRRRRGGSGG[dL][dE][dL][dK][dI][dK][dF][dW] [RRRRRRRRRR-GGSGG-lelkikfw]			EC50, HEK cell assay (TauRD(P301S) split luciferase, seeded with tau fibrils) [4]: 16.4 µM
RRRRRRRRRRGGSGG[dE][dL][dK][dI][dV][dW] [RRRRRRRRRR-GGSGG-elkivw]			EC50, HEK cell assay (TauRD(P301S) split luciferase, seeded with tau fibrils) [4]: 11.7 µM
[dCha][dK][dI][dR][dI][dH][dY] [bkirihy (PEPTIDE ID NO: 249)]			IC50, Tau40 assay (ThT) [2]: 1.09 µM
